Source: publication PMC5472179 (Nature Communications, 2017)
Ends that are not written are not given here. * marks the point of attachment. FITC = O=C1OC2(c3ccc(O)cc3Oc3cc(O)ccc32)c2ccc(NC(=S)*)cc21

B1: eNP_(600–739) (domain or fragment)
chain: RTPTVAPPAPVYRDHSEKKELPQDEQQDQDHTQEARNQDSDNTQSEHSFEEMYRHILRSQGPFDAVLYYHMMKDEPVVFSTSDGKEYTYPDSLEEEYPPWLTEKEAMNEENRFVTLDGQQFYWPVMNHKNKFMAILQHHQ
B2: eVP30_(110–272) (domain or fragment)
chain: GSVEQQLNITAPKDSRLANPTADDFQQEEGPKITLLTLIKTAEHWARQDIRTIEDSKLRALLTLCAVMTRKFSKSQLSLLCETHLRREGLGQDQAEPVLEVYQRLHSDKGGSFEAALWQQWDRQSLIMFITAFLNIALQLPCESSAVVVSGLRTLVPQSDNEE

Experiments:
[1] = target: B2; test: fluorescence polarisation; settings: both partners purified
[2] = target: B2; test: ITC; settings: both partners purified
[3] = target: B2; test: SEC-MALS; settings: both partners purified
[4] = target: the molecule itself; test: SEC-MALS

{FITC}-RTPTVAPPAPVYRDHS [FITC-eVP30BP]
binding result [1]: binds

B1
Kd [2]: 3.75 µM
stoichiometry N [2]: 0.8
stoichiometry N [3]: 1

RTPTVAPPAPVYRDHS [eVP30BP (unlabelled)]
binding result [1]: binds

B2
stoichiometry N [4]: 2
